Data from patent publication US12723075B2, “Humanized antibodies directed against KCNK9” (The Johns Hopkins University, priority 2020, dated 2026).

How the values were obtained:
[1] = molecular target: T1, human KCNK9 (Homo sapiens, UniProt Q9NPC2); test: Flow cytometry binding to KCNK9-expressing HEK293 cells; details: for Binding affinity to human KCNK9 relative to parental murine monoclonal antibody: PE conjugate secondary antibody (FIG. 1B)
T1 construct: expressed in transfected cells; host or cells: HEK293 cells, stably transfected, tetracycline-inducible promoter
T1 sequence (Q9NPC2 whole entry): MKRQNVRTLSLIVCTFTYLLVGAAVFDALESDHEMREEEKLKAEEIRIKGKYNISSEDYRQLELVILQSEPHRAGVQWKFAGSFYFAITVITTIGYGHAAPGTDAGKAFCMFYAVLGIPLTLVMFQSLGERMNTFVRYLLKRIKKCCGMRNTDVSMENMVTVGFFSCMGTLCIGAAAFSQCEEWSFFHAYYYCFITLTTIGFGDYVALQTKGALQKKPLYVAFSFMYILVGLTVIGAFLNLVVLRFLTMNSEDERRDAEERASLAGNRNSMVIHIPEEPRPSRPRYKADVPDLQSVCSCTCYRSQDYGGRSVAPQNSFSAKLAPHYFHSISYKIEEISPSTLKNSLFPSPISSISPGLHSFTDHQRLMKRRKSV
Excerpt: An anti-KCNK9 mouse monoclonal antibody having a VH amino acid sequence of SEQ ID NO: 1 and a VL amino acid sequence of SEQ ID NO: 2 (mu-mAb) was humanized using a method based on Queen et al., Proc. Natl. Acad. Sci. USA, 86: 10029-10033 (1989). The hybridoma antibody was sequenced after amplifying the antibody variable regions by RT-PCR with degenerate primers. The variable regions were fused with the human antibody IgG1 constant regions to produce a chimeric antibody. Antigen binding of the chimeric antibody was confirmed by staining of the KCNK9-expressing cells. HEK293 cells were stably transfected with KCNK9 expression vector under the tetracycline inducible promoter. After induction, the cells were incubated with various concentrations of chimeric KCNK9 antibody for 30 minutes, followed by secondary anti-human Fc FITC conjugate. Chimeric antibody binding was analyzed by flow cytometry. High affinity binding was confirmed with an EC50 of about 0.3 μg/mL (FIG. 1A).
After antibody sequence analysis and structure modeling, the murine antibody CDRs (SEQ ID NOs: 3-8) were grafted into human antibody VK3-11 and VH1-3 frameworks. Critical murine antibody framework residues that support CDR conformation were identified and introduced into the human frameworks. Five variants of the humanized VH sequences (VH1-5; SEQ ID NOs: 9-13) and three variants of the humanized VL variants (VL1-3; SEQ ID NOs: 14-16) were designed and synthesized. All of the variable regions were cloned into a human IgG1 expression vector. The VHs and VLs were cross-matched to generate 15 humanized KCNK9 antibody clones. All humanized antibodies were produced by transient transfection in 293 cells and purified by Protein A chromatography. Antigen binding of the humanized KCNK9 antibodies was characterized by immunofluorescence staining of KCNK9-expressing cells.

[2] = system: KCNK9-negative MDA-MB-231 cells; test: Cell viability, KCNK9-negative cells; format: cell-based, human; details: MDA-MB-231, KCNK9-negative (FIG. 5)
[3] = system: BEN lung carcinoma xenografts; test: Pre-established BEN lung carcinoma xenografts in nude mice; format: in vivo; details: 4 mg/kg b.w. twice per week, established tumors, p<0.01 (FIGS. 6A-6D)
Procedure: Equal numbers of viable BEN cells (4×10^6 cells) were implanted into the flanks of nude mice. Humanized anti-KCNK9 monoclonal antibodies AF-H4L3, AF-H5L2, or control human IgG (4 mg/kg b.w.) were administered twice per week after tumor xenografts were established and palpable. Tumor volumes were then monitored during treatments using caliper measurements every alternate day (N=10 for each group).

[4] = system: LX22 PDX small cell lung cancer cells; test: ADCC Reporter Bioassay with luciferase Jurkat effector cells; format: cell-based, human; details: six hours at 4° C. or 37° C. (FIG. 3)
Procedure: The capacity of the humanized KCNK9 AF-H5L2 monoclonal antibody to induce ADCC directed against LX22 PDX small cell lung cancer cells also was evaluated. ADCC assays were performed using the ADCC Reporter Bioassay Complete Kit (Promega #G7015). Human lung CA KCNK9+LX22 cells or CD20+ Raji cells (as positive control) were plated at 50,000 cells per well. On the following day, humanized afucosyl anti-KCNK9 (hu-AF-H5), hu-anti-CD20, or non-immune huIgG1 (as negative control) was added. 30 minutes later, FcγIIIa+ Jurkat effector cells expressing the vNFAT-luciferase ADCC reporter were added (300,000 cells/well). Cell mixtures were incubated for six hours at either 4° C. or 37° C. Cells were collected, solubilized, and luciferase activity was quantified as a biomarker of Jurkat cell activation.

[5] = system: KCNK9-expressing BEN lung carcinoma cells; test: Cell growth and viability assays (cell numbers, MTT, trypan blue exclusion); format: cell-based, human; details: 0.4 mg/mL (FIGS. 4A-4C)
Procedure: The cytotoxic effect of the AF-H4L3 and AF-H5L2 monoclonal antibodies was tested on KCNK9-expressing BEN lung carcinoma cells. Equal numbers of viable BEN cells were treated with AF-H4L3, AF-H5L2, or human IgG control (0.4 mg/mL). Cells were collected at indicated days after treatment for cell growth and viability assays.

[6] = system: KCNK9-positive BT549 carcinoma cells; test: Cell viability, KCNK9-positive breast cancer cells; format: cell-based, human; details: BT549, KCNK9-positive (FIG. 5)
[7] = system: Human LX22 PDX-derived lung carcinoma cells; test: MTT cell viability in combination with PARP or CDK4/6 inhibitor; format: cell-based; details: 72 hours
Procedure: Inhibitors of poly-ADP ribose polymerase (PARP) and cyclin dependent kinases (CDK4/6) are FDA-approved and undergoing clinical testing for multiple solid tumors. It was investigated whether inhibiting the KCNK9 K^+ channel with huKCNK9 mAb sensitized cancer cells to these therapeutics. Human LX22 PDX-derived lung carcinoma cells were treated with the PARP inhibitor AZD2461 (100 μM)+/−huKCNK9 mAb (400 μg/ml) or with the CDK4/6 inhibitor palbociclib (0.5 μM)+/−huKCNK9 mAb (400 μg/ml) for 72 hours. Cell viability was then quantified by MTT assay. Statistical comparisons were performed by ANOVA and post-hoc Tukey test.

B1: chimeric KCNK9 antibody: Murine anti-KCNK9 variable regions (SEQ ID NO: 1 and 2) fused with human antibody IgG1 constant regions (antibody, V domains shown)
VH: EVQLQQSGPELVKPGASVKTSCKASGYSFTGYYMYWVKQSPEKSLEWIGEINPSSGGTTYNQKFKAKATLTVDKSSSTAYMQLKSLTFEDSAVYYCARSGLRRRFYAMDYWGQGTSVTVSS
VL: DIVLTQSPASLAVSLGQRATVSCRASESVDSFGTTFMHWYQQKPGQPPKLLIYRASNLESGIPARFSGSGSRTDFTLTINPVEADDVATYYCQQSNKDPPTFGGGSKLEIK
modifications: human IgG1 constant regions lack entries; Mus
In the case of B1, the “EC50 of binding to KCNK9-expressing HEK293 cells” value ([1]; flow cytometry, 30 minutes incubation, anti-human Fc FITC secondary) is reported as “about 0.3 μg/mL”.

B2: H4L3: Humanized KCNK9 IgG1 antibody clone, VH SEQ ID NO: 12 and VL SEQ ID NO: 16 (antibody, V domains shown)
VH: QVQLVQSGAEVKKPGASVKVSCKASGYSFTGYYMYWVRQAPGQRLEWMGEINPSSGGTTYNQKFKARVTLTVDKSASTAYMELSSLRSEDTAVYYCARSGLRRRFYAMDYWGQGTLVTVSS
VL: EIVLTQSPATLSLSPGERATLSCRASESVDSFGTTFMHWYQQKPGQPPRLLIYRASNLESGIPARFSGSGSRTDFTLTISSLEPEDFATYYCQQSNKDPPTFGGGTKVEIK
modifications: human IgG1 constant regions
For B2, the “Binding affinity to human KCNK9 relative to parental murine monoclonal antibody” value [1] was “higher affinity than their parental KCNK9 murine monoclonal antibody”.

B3: H5L2: Humanized KCNK9 IgG1 antibody clone, VH SEQ ID NO: 13 and VL SEQ ID NO: 15 (antibody, V domains shown)
VH: QVQLVQSGAEVKKPGASVKVSCKASGYSFTGYYMYWVRQAPGQRLEWIGEINPSSGGTTYNQKFKARATLTVDKSASTAYMELSSLRSEDTAVYYCARSGLRRRFYAMDYWGQGTLVTVSS
VL: EIVLTQSPATLSLSPGERATLSCRASESVDSFGTTFMHWYQQKPGQAPRLLIYRASNLESGIPARFSGSGSRTDFTLTISSLEPEDFAVYYCQQSNKDPPTFGGGTKVEIK
modifications: human IgG1 constant regions
For B3, the “Binding affinity to human KCNK9 relative to parental murine monoclonal antibody” value [1] was “higher affinity than their parental KCNK9 murine monoclonal antibody”.

B4: AF-H5L2: Afucosyl version of H5L2 antibody generated using fut8−/− CHO cells (antibody, V domains shown)
VH: QVQLVQSGAEVKKPGASVKVSCKASGYSFTGYYMYWVRQAPGQRLEWIGEINPSSGGTTYNQKFKARATLTVDKSASTAYMELSSLRSEDTAVYYCARSGLRRRFYAMDYWGQGTLVTVSS
VL: EIVLTQSPATLSLSPGERATLSCRASESVDSFGTTFMHWYQQKPGQAPRLLIYRASNLESGIPARFSGSGSRTDFTLTISSLEPEDFAVYYCQQSNKDPPTFGGGTKVEIK
For B4, the “Effect on cell viability” value [2] was “without effecting the viability”, the “Effect on tumor growth (tumor volume)” value [3] was “significantly attenuated tumor growth” and the “ADCC induction (luciferase activity of Jurkat effector cells)” value [4] was “induced ADCC that was temperature dependent”. The “Activity compared between the two clones, cell growth and viability” value [5] was “comparatively more active”, the “Effect on cell growth and viability” value [5] was “inhibited cell growth and viability” and the “Effect on cell viability” value [6] was “inhibited the viability”. The “Effect on cell toxicity induced by PARP inhibition” value ([7]; 400 μg/ml mAb + AZD2461 100 μM, MTT (FIG. 7A)) was “substantially augmented” and the “Effect on cell toxicity induced by CDK4/6 inhibition” value ([7]; 400 μg/ml mAb + palbociclib 0.5 μM, MTT (FIG. 7B)) was “substantially augmented”.

B5: AF-H4L3: Afucosyl version of H4L3 antibody generated using fut8−/− CHO cells (antibody, V domains shown)
VH: QVQLVQSGAEVKKPGASVKVSCKASGYSFTGYYMYWVRQAPGQRLEWMGEINPSSGGTTYNQKFKARVTLTVDKSASTAYMELSSLRSEDTAVYYCARSGLRRRFYAMDYWGQGTLVTVSS
VL: EIVLTQSPATLSLSPGERATLSCRASESVDSFGTTFMHWYQQKPGQPPRLLIYRASNLESGIPARFSGSGSRTDFTLTISSLEPEDFATYYCQQSNKDPPTFGGGTKVEIK
In the case of B5, the “Effect on tumor growth (tumor volume)” value [3] is reported as “significantly attenuated tumor growth” and the “Effect on cell growth and viability” value [5] is reported as “inhibited cell growth and viability”.
